Measurements taken from the nanobody polyreactivity screen of Harvey et al. (2022).

Assay: yeast display, Sf9 membrane polyspecificity reagent, FACS + sequencing; frameworks hold sequencing errors
Summary of the method: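 Polyreactivity labels are assigned by the sorting gate from which each nanobody was recovered. The gates were low and high (top ~1%), set on anti-HA fluorescence for expression and streptavidin fluorescence for reagent binding. Before sorting, galactose-induced (36–48 hours) yeast display cells were stained for 1 hour at 4 °C with 10% biotinylated, detergent-solubilized Sf9 membrane reagent.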

Sequence	polyreactivity (PSR sort gate)
QVQLVESGGGLVQAGGSLRLSCAASGITLFYYAMGWYRQAPGKERELVAVISASGGSTYYADSVKGRFTISRDNAKNTVYLQMNSLKPEDTAVYYCAAVAYWRSSSWYYYWGQGTQVTVSS	high polyreactivity
QVQLVESGGGLVQAGGSLRLSCAASGITLGAYAMGWYRQAPGKERELVAAISRSGGSTYYADSVKGRFTISRDNAKNTVYLQMNSLKPEDTAVYYCNAPRFVSYDYWGQGTQVTVSS	high polyreactivity
QVQLVESGGGLVQAGGSLRLSCAASGITLGRYAMGWYRQAPGKERELVAAISWSGGTTYYADSVKGRFTISRDTAKNTVDLQMNSLKPEDTAGYYCTKESPYRQWGWSYYYWGQGTQVTVSS	high polyreactivity
QVQLVESGGGLVQAGGSLRLSCAASGITLGRYSMGLYRQAPGKVRELVAVISDSGGSTYYADSVKGRFTISRDNAKNTVYLQMNSLKPEYTAVYYCARRFDRYPRYYYWGQGTQVTVSS	high polyreactivity
QVQLVESGGGLVQAGGSLRLSCAASGITLRRNTMGWDRQAPGKERELVAAITRSGGSTYYADSVKGRFTISRDNAKNTVYLQMNSLKPEDTAVYYCAKGPSYGGPSHDYWGQGTQVTVSS	high polyreactivity
QVQLVESGGGLVQAGGSLRLSCAASGITLTKNAMGWYRQAPGKERELVAGITRGSRTNYADSVKGRFTISRDNAKNSVYLQMNSLIPEDTAVYYCAASYWPYRGPVGGSKMYFWGQGTQVTVSS	high polyreactivity
QVQLVESGGGLVQAGGSLRLSCAASGITLYRYVMGWYRQAPGKERELLADISGRGTSTYYADSVKGRFTISRDNAKNTVYLQMNSLNAEDTAVYYCNAEFTKSGALVIPYTYYYAEDYWGQGSQVTVSS	low polyreactivity
QVQLVESGGGLVQAGGSLRLSCAASGITLYYYAMGWYRQAPGKEREFVAAITWRGTNTYYADSVKGRFTISRDNAKNTVYLQMNSLKPEDTAVYYCAADYEQRVADYYYWGQGTQVTVSS	low polyreactivity
QVQLVESGGGLVQAGGSLRLSCAASGITLYYYTMGWYRQAPGKERELVAAISGSGGSTYYADSVKGRFTISRDNAKNTVYLQMNSLKPEDTAVYYCNTARSLKNHFYKYDYWGHGTQVTVSS	high polyreactivity
QVQLVESGGGLVQAGGSLRLSCAASGITRGSNAMGWYRQAPGTERELVAAITSGSSTYYADSVKGRFTISRDNAKNTVYLQMNSLKPEDTAVYYCAAEWWDVIAPYEYWGQGTQVTVSS	low polyreactivity
QVQLVESGGGLVQAGGSLRLSCAASGITSNSYAMGWYRQAPGKERELVATITSGGSTNYADSVKGRFTISRDNAKNSVYLQMNSLKPEDTAVYYCNREDWLPTQYDYWGQGTQVTVSS	low polyreactivity
QVQLVESGGGLVQAGGSLRLSCAASGITSPAYAMGWYRQAPGKEREFVAAISSSGVSTYYADSVKGRFTISRDNAKNTVYLQMNRLKPEDTAVYYCNTVSWPLSSKYYYWGQGTQVTVSS	high polyreactivity
QVQLVESGGGLVQAGGSLRLSCAASGITSRPYVMGGYRQAPGKERELVAAISLTGGRTYYADSVKGRFTISRDNAKNTVYLQMNSLKPEDTAVYYCAAKYSNGSGFDYWGQGTQVTVSS	high polyreactivity
QVQLVESGGGLVQAGGSLRLSCAASGITSRQYAMGWYRQAPGKERELVAAISFSGGRTYYADSVKGRFTISRDNAKNTVYLQMNSLKPEDTAVYYCATRNRYSPRDYWGQGTQVTVSS	high polyreactivity
QVQLVESGGGLVQAGGSLRLSCAASGITSSLNAMGWYRQAPGKERELVAAISWRGGSTYYADSVKGRFTISRDNAKNTVNLRMHSLKPEDTAVYYCNVVKRSFRYDYWGQGTQVTVSS	high polyreactivity
QVQLVESGGGLVQAGGSLRLSCAASGITSSYAMGWYRQAPGKERELVAAISRGGSTYYADSVKGRFTISRDNAKNTVYLLLNSLKPEDTAVYYCNKRRYPYGWGQGTLVTVSS	high polyreactivity
QVQLVESGGGLVQAGGSLRLSCAASGITSVVYAMGWYRQAPGKERELVAAISSAGSTYYADSVKGRFTISRDNAKNTVYLQMNSLKPEDTAVYYCAAAGYPQTYLYYYWGQGTQVTVSS	low polyreactivity
QVQLVESGGGLVQAGGSLRLSCAASGITVNSYAMGWYRQAPGKERELVAAISGSGSSTYYADSVKGRFTISRDNAKNTVYLQMNSLKPEDTAVYYCAATGFSSWTYYTHEYWGQGTQVTVSS	low polyreactivity
QVQLVESGGGLVQAGGSLRLSCAASGITVYVNVMGWYRQAPGKERELVAGISYSGGSTYYADSVKGRFTISRDNAKNTVYLQMNSLKPEDTAVYYCAADYWYYGSPVSRPYYYWGQGTQVTVSS	high polyreactivity
QVQLVESGGGLVQAGGSLRLSCAASGITYYRNAMGWYRQAPGKERELVAAISWSGGRTYYADSVKGRFTISRDNAKNTVYLQMNSLKPEDTAVYYCNKYTHYYDYDYWGQGTQVTVSS	high polyreactivity
QVQLVESGGGLVQAGGSLRLSCAASGKIFNNYVMGWYRQAPGKVRELVARIDSGGSTNYADSVKGRFTISRDNAKNTVYLQMNSLKPEDTAVYYCAARKLSSYAYDYWGQGTQVTVSS	low polyreactivity
QVQLVESGGGLVQAGGSLRLSCAASGLIFAEYAMGWYRQAPGKERELVARITSGGSTDYADSVKGRFTISRDNAKNTVYLQMNSLKPEDTALYYCAARYYSQDNNASTASDFDYWGQGTQVTVSS	low polyreactivity

Sequence	polyreactivity (PSR sort gate)
QVQLVESGGGLVQAGGSLRLSCAASGLIFAHNTMGWYRQATGKERELVAAISATGDGNTYYADSLKGRFTISRDNAKNTVYLQMNSLKPEDTAVYYCNALYYDYYAEYYGESDYWGQGTQVTVSS	low polyreactivity
QVQLVESGGGLVQAGGSLRLSCAASGLIFAWYAMGWYRQAPGKERELVAAITGTGSSTYYADSVKGRFTISRDNAKNTVYLQMNSLKPEDTAVYYCNRGYFNSRTPTFDYWGQGTQVTVSS	low polyreactivity
QVQLVESGGGLVQAGGSLRLSCAASGLIFDINAMGWYRQAPGKERELVAAITWRGGSTYYADSVKGRFTISRDNAKNTVYLQMNSLKPEDTAVYYCAAGWSYRNGVGVGDFYYGYDYWGQGTQVTVSS	high polyreactivity
QVQLVESGGGLVQAGGSLRLSCAASGLIFDLYAMGWYRQAPGKERELVAAITWSGGSTYYADSVKGRFTISRDNAKNTVYLQMNSLKPEDTAVYYCAAETHLWYDFDYWGQGTQVTVSS	high polyreactivity
QVQLVESGGGLVQAGGSLRLSCAASGLIFDPNTMGWYRQAPGKERELVAAISSGGDTNYADSVKGRFTISRDNAKNTVYLQMNSLKPEDTAVYYCAAERYYFPRSYRYGYWGQGTQVTVSS	low polyreactivity
QVQLVESGGGLVQAGGSLRLSCAASGLIFDSDAMGWYRQAPGKERELVAAITYTGGSTYYADSVKGRFTISRDSAKNTVYLQMNSLKPEDTAVYYCAARRQRDRYGYWGQGTKVTVSS	high polyreactivity
QVQLVESGGGLVQAGGSLRLSCAASGLIFDVNTMGWYRQAPRKERELVAAITGSGGRTYYADSVKGRFTISRDNAKNTVYLQMNSLKPEDNAVYYCNARHPASGDLYRMDYWGQGTQVTVSS	low polyreactivity
QVQLVESGGGLVQAGGSLRLSCAASGLIFDYNAMGWYRQAPGKERELVAAISSGGSTYYADSVKGRFTISRDNAKNTVYLQMNSLKPEDTAVYYCATRRQAQYTRYYGSRQFYYWGQGTQVTVSS	high polyreactivity
QVQLVESGGGLVQAGGSLRLSCAASGLIFDYNAMGWYRQAPGKEWELVAAISSGGSTYYADSVKGRFTISRDNANNTVYLQMNSLKPEDTAVYYCAARFSSYVRRYYYWGQGTQVTVSS	high polyreactivity
QVQLVESGGGLVQAGGSLRLSCAASGLIFDYYAMGWYRQAPGKERELVAAISSGGDTTYADSVKGRFTISRDNAKNTVYLQMNSLKPEDTAVYYCAADRWIPVYILGADGYDYWGQGTQVTVSS	low polyreactivity
QVQLVESGGGLVQAGGSLRLSCAASGLIFFQNAMGWYRQAPGKERELVAAITWSGGRTYYADSVKGRFTISRDNAKNTVYLQMKSLKPEDTEVYYCAADYDYPDYYAPSWPGYNYWGQGTQVTVSS	low polyreactivity
QVQLVESGGGLVQAGGSLRLSCAASGLIFFSYAMGWYRQAPGKERELVAAISRRGGRTYYADSVKGRFTISRDNAKNTVYLQMNSLKPEDTAASYCATYVASHRGDRTYDHWGQCTQVTVSS	low polyreactivity
QVQLVESGGGLVQAGGSLRLSCAASGLIFFTYAMGWYRQAPGKERELVAAITGRGGRTYYADSVKGRFTISRDNAKNTVYLQMNSLKPEDTAVYYCNAEYRYYQKTPGRYTNVEYDYWGQGTQVTVSS	low polyreactivity
QVQLVESGGGLVQAGGSLRLSCAASGLIFFVYAMGWYRQAPGKERELVAAISASGVSTNYADSVKGRFTISRDNAKNTVYLQMNSLKPEDTAVYYCAAGRGGYGYWGQGTQVTVSS	low polyreactivity
QVQLVESGGGLVQAGGSLRLSCAASGLIFGGNAMGWYRQAPGKERELVAAISRTGGRTYYADSVKGRFTISRDNAKNTVFLQMNSLKPEDTAVYYCAAAAQRPEGYYWGQGTQVTVSS	high polyreactivity
QVQLVESGGGLVQAGGSLRLSCAASGLIFGGNAMGWYRQAPGKERELVAAITYRTGSTYYADSVKGRFTISRDNAKNTVYLQMNSLKPEDTAVYYCAAAVSLGYPVAFYYWGQGTQVTVSS	low polyreactivity
QVQLVESGGGLVQAGGSLRLSCAASGLIFGRYAMGWYRPAPGKERELVAAITNSDGDTYYADSVKGRFTISRDNAKNTVYLQMNSLKPEDTAVYYCNADDALRQTSDYNYWGQGTQVTVSS	low polyreactivity
QVQLVESGGGLVQAGGSLRLSCAASGLIFGWYAMGWYRQAPGKEREFVASIRYGGGSTYYADSVKGRFTISRDNAKKTVYLQMNSLKPEDTAVYYCAAELSVDKYDYWGQGTQETVSS	low polyreactivity
QVQLVESGGGLVQAGGSLRLSCAASGLIFGYYALGWYRQAPGKDRELVAAINSGGSTYYADTVKGRFTISRDNAKNTVYLQMNSLKPEDTPVYNCAARYYSEYDYWGHGTQVTVSS	low polyreactivity
QVQLVESGGGLVQAGGSLRLSCAASGLIFGYYAMGWYRQAPGTEREFVAAIDGSDGTTYYADSVKGRFTISRDNAKNTVYLQMNSLKPEDTAVYYCNAESSSYSCDMGYDYWGQGTQVTVSS	low polyreactivity
QVQLVESGGGLVQAGGSLRLSCAASGLIFGYYGMGWYRQAPGKERELVAVITDDDSTTYADSVKGRFTISRDNAKNTVYLLMNSLKPEDTAVYYCNADNLLGRFDSWGQGTQVTVSS	low polyreactivity
